Reference: paper PMC7025507

Molecular target: hStau1^55 SSM/RBD5 construct (human)
Assay: SEC

hStau1^55 SSM/RBD5 construct (domain or fragment)
stoichiometry N: 2
